The source of these data is paper doi:10.1101/2024.04.17.589974 (bioRxiv, 2024).

Positions count from the first letter of the chain named.

Assay [1] addresses T1, VE-cadherin (wild type, mouse) (mouse (endogenous in lung of C57BL/6 …, UniProt P55284 46-784)).
T1 sequence (looked up): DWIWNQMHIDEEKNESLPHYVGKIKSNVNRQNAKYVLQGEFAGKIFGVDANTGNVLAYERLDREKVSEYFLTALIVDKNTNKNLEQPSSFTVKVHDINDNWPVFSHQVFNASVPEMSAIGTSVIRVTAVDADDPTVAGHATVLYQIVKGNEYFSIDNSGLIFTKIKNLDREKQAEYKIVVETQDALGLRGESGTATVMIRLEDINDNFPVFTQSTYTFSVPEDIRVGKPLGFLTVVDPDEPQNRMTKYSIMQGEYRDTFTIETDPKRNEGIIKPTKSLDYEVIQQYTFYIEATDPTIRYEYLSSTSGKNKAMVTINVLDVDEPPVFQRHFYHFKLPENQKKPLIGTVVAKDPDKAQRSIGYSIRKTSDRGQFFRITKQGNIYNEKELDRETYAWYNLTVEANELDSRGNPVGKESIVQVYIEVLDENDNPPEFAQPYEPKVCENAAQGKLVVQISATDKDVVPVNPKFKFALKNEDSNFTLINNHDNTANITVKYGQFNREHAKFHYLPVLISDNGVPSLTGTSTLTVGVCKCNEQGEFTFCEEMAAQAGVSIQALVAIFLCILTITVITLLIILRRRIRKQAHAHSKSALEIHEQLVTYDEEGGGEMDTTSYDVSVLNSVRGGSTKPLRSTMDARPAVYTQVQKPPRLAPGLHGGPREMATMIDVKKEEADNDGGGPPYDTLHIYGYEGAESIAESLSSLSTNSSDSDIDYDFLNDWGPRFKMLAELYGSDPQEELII
In words: co-IP.

The target in assay [2] is T2, Y685F-VE-cadherin (knock-in mutant, mouse) (mouse (endogenous in lung of C57BL/6 …, UniProt P55284 46-784, Y685F)).
T2 sequence (looked up): T1 sequence (looked up) with Y640F
Kind of assay: co-IP.

B1: β-catenin (natural protein, UniProt Q02248 1-781, looked up)
chain: MATQADLMELDMAMEPDRKAAVSHWQQQSYLDSGIHSGATTTAPSLSGKGNPEEEDVDTSQVLYEWEQGFSQSFTQEQVADIDGQYAMTRAQRVRAAMFPETLDEGMQIPSTQFDAAHPTNVQRLAEPSQMLKHAVVNLINYQDDAELATRAIPELTKLLNDEDQVVVNKAAVMVHQLSKKEASRHAIMRSPQMVSAIVRTMQNTNDVETARCTAGTLHNLSHHREGLLAIFKSGGIPALVKMLGSPVDSVLFYAITTLHNLLLHQEGAKMAVRLAGGLQKMVALLNKTNVKFLAITTDCLQILAYGNQESKLIILASGGPQALVNIMRTYTYEKLLWTTSRVLKVLSVCSSNKPAIVEAGGMQALGLHLTDPSQRLVQNCLWTLRNLSDAATKQEGMEGLLGTLVQLLGSDDINVVTCAAGILSNLTCNNYKNKMMVCQVGGIEALVRTVLRAGDREDITEPAICALRHLTSRHQEAEMAQNAVRLHYGLPVVVKLLHPPSHWPLIKATVGLIRNLALCPANHAPLREQGAIPRLVQLLVRAHQDTQRRTSMGGTQQQFVEGVRMEEIVEGCTGALHILARDVHNRIVIRGLNTIPLFVQLLYSPIENIQRVAAGVLCELAQDKEAAEAIEAEGATAPLTELLHSRNEGVATYAAAVLFRMSEDKPQDYKKRLSVELTSSLFRTEPMAWNETADLGLDIGAQGEALGYRQDDPSYRSFHSGGYGQDALGMDPMMEHEMGGHHPGADYPVDGLPDLGHAQDLMDGLPPGDSNQLAWFDTDL
For the molecule B1, the figures for the “β-catenin/VE-cadherin ratio in the VE-cadherin immunoprecipitate (densitometry)” value in assay [1] and in assay [2] were 1.14 and 0.798, respectively.
